# Reference: patent US20230183352A1 (published 2023)
# Where a chain is given by its changes, count along the chain named.
# B1: QP201202 (antibody, V domains shown)
# VH: EVQLQQSGPELVKPGASVKMSCKASGYTFTNYFVHWVKQKPGQGLEWIGYINPYNDDTKYNEKFKGKATLTSDKSSSTAYMDLSSLTSEDSAVYYCLSLRFFAYWGQGTLVTVSA
# VL: DIVMTQSPSSLTVTAGEKVTMSCKSSQSLLNSGNQKNYLTWYQQKPGQAPKLLIYWASTRESGVPDRFIGSGSGTDFTLTISHVQAEDLAVYFCQNDYSYPLTFGAGTNLELK
# B2: QP14561454 (antibody, V domains shown)
# VH: QVQLVQSGAEVKKPGASVKVSCKASGYTFTNYFVHWVRQAPGQGLEWMGYINPYNDDTKYNEKFKGRVTMTRDTSTSTVYMELSSLRSEDTAVYYCLSLRFFAYWGQGTLVTVSS
# VL: DIVMTQSPDSLAVSLGERATISCKSSQSLLNSGNQKNYLTWYQQKPGQAPKLLIYWASTRESGVPDRFSGSGSGTDFTLTISSVQAEDVAVYFCQNDYSYPLTFGGGTKVEIKR
# B3: QP14581454 (antibody, V domains shown)
# VH: B2 VH with R38K, M48I, R67K, V68A, M70L
# VL: B2 VL
# B4: QP14581453 (antibody, V domains shown)
# VH: B2 VH with R38K, M48I, R67K, V68A, M70L
# VL: B2 VL with V84L, F93Y
# B5: QP14431442 (antibody, V domains shown)
# VH: QVQLVQSGAEVKKPGASVKVSCKASGYAFSSYWMNWVRQAPGQGLEWMGQIYPGNGDTTYNGKFKGRVTMTRDTSTSTVYMELSSLRSEDTAVYYCARFVKGNAMDYWGQGTLVTVSS
# VL: DIVMTQSPDSLAVSLGERATISCKSSQSLLNSGNQKNYLTWYQQKPGQPPKMLIYWASTRESGVPDRFSGSGSGIDFTLTISSVQAEDVAVYYCQNAYSYPFTFGQGTKLEIK
# B6: QP14431441 (antibody, V domains shown)
# VH: B5 VH
# VL: B5 VL with M52L
# B7: QP14441439 (antibody, V domains shown)
# VH: B5 VH with M48I, R72A, T74K
# VL: B5 VL with S22N, M52L, I75T, V84L
# B8: QP14571454 (antibody, V domains shown)
# VH: B2 VH with M48I, M70L
# VL: B5 VL with P49A, M52L, I75T, Y93F, A97D, F102L, Q106G, L110V
# B9: QP14441440 (antibody, V domains shown)
# VH: B5 VH with M48I, R72A, T74K
# VL: B5 VL with M52L, I75T, V84L
# B10: QP14571452 (antibody, V domains shown)
# VH: B2 VH with M48I, M70L
# VL: B5 VL with S22N, M52L, I75T, V84L, A97D, F102L, Q106G, L110V
# B11: QP14571455 (antibody, V domains shown)
# VH: B2 VH with M48I, M70L
# VL: B5 VL with P49A, M52L, S69I, I75T, Y93F, A97D, F102L, Q106G, L110V
# B12: QP14561455 (antibody, V domains shown)
# VH: B2 VH
# VL: B5 VL with P49A, M52L, S69I, I75T, Y93F, A97D, F102L, Q106G, L110V
# B13: QP14571453 (antibody, V domains shown)
# VH: B2 VH with M48I, M70L
# VL: B5 VL with P49A, M52L, I75T, V84L, A97D, F102L, Q106G, L110V
# B14: QP14581452 (antibody, V domains shown)
# VH: B2 VH with R38K, M48I, R67K, V68A, M70L
# VL: B5 VL with S22N, M52L, I75T, V84L, A97D, F102L, Q106G, L110V
# B15: QP14441442 (antibody, V domains shown)
# VH: B5 VH with M48I, R72A, T74K
# VL: B5 VL
# B16: QP14561452 (antibody, V domains shown)
# VH: B2 VH
# VL: B5 VL with S22N, M52L, I75T, V84L, A97D, F102L, Q106G, L110V
# B17: QP14451441 (antibody, V domains shown)
# VH: B5 VH with M48I, R72A, T74K, Y95F
# VL: B5 VL with M52L
# B18: QP14561453 (antibody, V domains shown)
# VH: B2 VH
# VL: B5 VL with P49A, M52L, I75T, V84L, A97D, F102L, Q106G, L110V
# B19: QP199200 (antibody, V domains shown)
# VH: DVQLVESGGGLVQPGGSRKLSCAASGFTFSSFGMHWVRQAPEKGLEWVAYISSGSNSIYYVDTVKGRFTISRDNPKNTLFLQMTSLKSEDTAMYYCARNAYYGNSFDYWGQGTTLTVSS
# VL: B1 VL with A49P, I69T, D76V, H83S, D97N, S99Y, N109K
# B20: QP14501448 (antibody, V domains shown)
# VH: EVQLVESGGGLVQPGGSLRLSCAASGFTFSSFGMHWVRQAPGKGLEWVAYISSGSNSIYYVDTVKGRFTISRDNAKNSLYLQMNSLRDEDTAVYYCARNAYYGNSFDYWGQGTLVTVSS
# VL: B2 VL with A49P, S69T, D76V, V84L, D97N, S99Y
# B21: QP14501446 (antibody, V domains shown)
# VH: B20 VH
# VL: B2 VL with S22N, A49P, V84L, F93Y, D97N, S99Y
# B22: QP14491448 (antibody, V domains shown)
# VH: B20 VH with A49S
# VL: B2 VL with A49P, S69T, D76V, V84L, D97N, S99Y
# B23: QP14661460 (antibody, V domains shown)
# VH: EVQLVQSGAEVKKPGASVKVSCKASGYTFTSYIMHWVKQAPGQGLEWIGYINPYNDGTKYNEKFKGKATLTSDKSTSTVYMELSSLRSEDTAVYCCARLGFTTRNAMDYWGQGTLVTVSS
# VL: B5 VL with S22N, T40A, M52L, W56G, I75T, V84L, A97D, Y98H
# B24: QP14491446 (antibody, V domains shown)
# VH: B20 VH with A49S
# VL: B5 VL with S22N, M52L, I75T, V84L, A97N, S99Y, F102L, Q106G, L110V
# B25: QP14511446 (antibody, V domains shown)
# VH: B20 VH with D88S
# VL: B5 VL with S22N, M52L, I75T, V84L, A97N, S99Y, F102L, Q106G, L110V
# B26: QP14651462 (antibody, V domains shown)
# VH: B23 VH with K38R, K67R, A68V, C95Y
# VL: B5 VL with S22N, T40A, M52L, W56G, S69T, I75T, A97D, Y98H
# B27: QP14651461 (antibody, V domains shown)
# VH: B23 VH with K38R, K67R, A68V, C95Y
# VL: B5 VL with S22N, T40A, M52L, W56G, S69T, I75T, V84L, A97D, Y98H
# B28: QP14501447 (antibody, V domains shown)
# VH: B20 VH
# VL: B5 VL with M52L, I75T, V84L, Y93F, A97N, S99Y, F102L, Q106G, L110V
# Biological target: T1, Claudin 18.2 (CLDN18.2), expressed on CHOS-CLDN 18.2 / HEK293-CLDN 18.2 / HCC827-CLDN 18.2 cells (human, UniProt P56856 1-261)
# Test: cell ELISA
row,EC50 [µg/mL],Binder
1,0.944,B1
2,0.213,B2
3,0.21,B3
4,0.187,B4
5,0.132,B5
6,0.159,B6
7,0.109,B7
8,0.357,B8
9,0.086,B9
10,0.242,B10
11,0.265,B11
12,0.246,B12
13,0.796,B13
14,0.279,B14
15,0.243,B15
16,0.389,B16
17,0.134,B17
18,0.357,B18

# Biological target: T1, Claudin 18.2 (CLDN18.2), expressed on …
# Test: cell ELISA
# Remark: another data set of the same source
row,EC50 [µg/mL],Binder
1,0.243,B19
2,0.115,B20
3,0.109,B21
4,0.12,B22
5,0.105,B23
6,0.158,B24
7,0.133,B25
8,0.119,B26
9,0.301,B27
10,0.0926,B28
